Source: patent US20040014658A1 (PROCHON BIOTECH, published 2004)

Target: L37M-W144G-FGF9 (human, UniProt P31371 38-208)
Test: ex vivo mouse femur growth with FGFR3 neutralizing Fab MSPRO-59 (inferred)
Method: Femoral bone cultures were performed by excising the hind limbs of wild type mice. The limbs were carefully cleaned from the surrounding tissue (skin and muscles) and the femora exposed. The femora were removed and further cleared from tissue remains and ligaments. The femora were measured for their initial length, using a binocular with an eyepiece micrometer ruler. […] In addition, the medium contains BSA (0.2%), β-glycerophosphate (1 mM) and freshly prepared ascorbic acid (50 μg/ml). The bones were cultured for 15 days. Measurements of bone length and medium replacement were performed every three days.

binding result: binds
B1: FGFR3 of wild type mouse femora (receptor)
chain: EPPGPEQRVVRRAAEVPGPEPSQQEQVAFGSGDTVELSCHPPGGAPTGPTVWAKDGTGLVASHRILVGPQRLQVLNASHEDAGVYSCQHRLTRRVLCHFSVRVTDAPSSGDDEDGEDVAEDTGAPYWTRPERMDKKLLAVPAANTVRFRCPAAGNPTPSISWLKNGKEFRGEHRIGGIKLRHQQWSLVMESVVPSDRGNYTCVVENKFGSIRQTYTLDVLERSPHRPILQAGLPANQTAILGSDVEFHCKVYSDAQPHIQWLKHVEVNGSKVGPDGTPYVTVLKTAGANTTDKELEVLSLHNVTFEDAGEYTCLAGNSIGFSHHSAWLVVLPAEEELMETDEAGSVYAGVLSYGVVFFLFILVVAAVILCRLRSPPKKGLGSPTVHKVSRFPLKRQVSLESNSSMNSNTPLVRIARLSSGEGPVLANVSELELPADPKWELSRTRLTLGKPLGEGCFGQVVMAEAIGIDKDRTAKPVTVAVKMLKDDATDKDLSDLVSEMEMMKMIGKHKNIINLLGACTQGGPLYVLVEYAAKGNLREFLRARRPPGMDYSFDACRLPEEQLTCKDLVSCAYQVARGMEYLASQKCIHRDLAARNVLVTEDNVMKIADFGLARDVHNLDYYKKTTNGRLPVKWMAPEALFDRVYTHQSDVWSFGVLLWEIFTPGGPSPYPGIPVEELFKLLKEGHRMDKPASCTHDLYMIMRECWHAVPSQRPTFKQLVEDLDRILTVTSTDEYLDLSVPFEQYSPGGQDTPSSSSSGDDSVFTHDLLPPGPPSNGGPRT
notes: whole, on cells; Endogenous receptor in bone tissue culture
